Key:
allogeneic grafts = experiment: Graft survival with B4-Crry and subtherapeutic tacrolimus; assay type: in vivo
Description: FIG. 6 depicts the results of example experiments depicting the survival curve from B4-Crry and subtherapeutic tacrolimus.
Experiments were conducted to examine the effects of B4-Crry in combination with sub-therapeutic tacrolimus (also known as FK506). Tacrolimus was given at 1 mg/kg/day. […] Thus, untreated allogeneic grafts reject at the same extent as the subtherapeutic Tacrolimus treated animals. B4-Crry was given at 0 and 24 hours post-transplant and Tacrolimus was given at 1 mg/kg/day for the duration of the experiment (until full rejection of the graft).

[1] = molecular target: T1, annexin IV in post-ischemic mouse tissue (transplanted heart, brain-dead donor cardiac grafts, liver) (mouse, UniProt P97429 1-319, limits assumed); experiment: perfusion of radiolabeled (125I) B4scFv-Crry through cardiac grafts of brain-dead or living donors, counted after flush
T1 construct: The target was whole grafts or tissue
T1 sequence (looked up): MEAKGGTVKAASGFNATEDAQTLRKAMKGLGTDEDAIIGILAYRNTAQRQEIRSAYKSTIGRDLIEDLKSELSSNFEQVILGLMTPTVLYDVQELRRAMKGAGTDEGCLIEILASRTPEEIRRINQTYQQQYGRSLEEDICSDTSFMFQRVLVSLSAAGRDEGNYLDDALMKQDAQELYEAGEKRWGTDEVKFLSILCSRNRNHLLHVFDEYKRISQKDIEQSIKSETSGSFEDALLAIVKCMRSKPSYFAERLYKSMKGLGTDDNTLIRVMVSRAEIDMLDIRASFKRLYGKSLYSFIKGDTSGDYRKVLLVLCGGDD
Description: FIG. 5 depicts the Binding of ¹²⁵I-B4-Crry after perfusion of grafts of BD (3 hours) or living donors. […] After 5 minutes, flush with 0.5 ml PBS, weigh and count.
In this experiment, B4scFv-Crry was administered to the donor hearts as a constituent of the UW preservation solution. […] The donor heart was then isolated and perfused with 0.5 mL ice cold UW or I¹²⁵-B4scFv-Crry via the proximal aortic arch.

VC isografts = experiment: Ischemia reperfusion injury of VC isografts, histology scoring of skin and muscle; assay type: in vivo; settings: VC isografts in treated wild type mice
Description: Experiments were conducted to evaluate the effects of antibody-targeted complement inhibition on acute graft injury. VC isografts were transplanted into Rag −/− mice or wildtype mice. Mice were treated with PBS, B4 IgM mAb or B4-Crry. Isolated VCAs were stained and scored using a histology scoring system.

transplanted heart = experiment: Cardiac allograft transplant model (B4scFv targeting strategy); assay type: in vivo, mice
Description: (§1) A therapeutic strategy that exploited this post-ischemia recognition system of natural antibodies was then developed and characterized. Based on neoepitope identification, an anti-annexin-IV single chain antibody (B4scFv) and an scFv linked to Crry (B4scFv-Crry) was constructed. […] Further, post-ischemic expression of the B4scFv neoepitope has been observed in multiple tissues/organs in both mouse and humans. […] Liver biopsies were obtained from human donor livers following Tx and 1 hour reperfusion. […] Similar data was obtained with normal and ischemic brain samples obtained from stroke patients. Finally, it is shown herein that a decrease in anti-annexin IV Abs in human serum 24 hours after cardiac Tx as compared to pre-Tx levels (note that levels were not decreased in 2 patients, which is likely due to transfusion volume) (Table 1). […] In certain aspects, there may be benefits of a neoepitope vs. C3d targeting approach for protection against IRI in a transplant. […] Second, the targeting vehicle itself contributes to therapeutic activity by blocking the binding of complement activating pathogenic IgM, which in turn reduces the binding of Clq and MBL, which can impact inflammation, endothelial activation, cell trafficking, and Ag-presentation. Third, it is likely less immunosuppressive since not all sites of infection and C3 deposition will be targeted with complement inhibition.

annexin IV = molecular target: T2, annexin IV (Homo sapiens, UniProt P09525); experiment: Immunohistochemistry of human donor liver biopsies following Tx and 1 hour reperfusion; assay type: binding
T2 construct: Liver biopsies were obtained from human donor livers following Tx and 1 hour reperfusion; from tissue; host or cells: human donor liver biopsies after transplantation and 1 hour reperfusion
T2 sequence (P09525 2-319 limits assumed): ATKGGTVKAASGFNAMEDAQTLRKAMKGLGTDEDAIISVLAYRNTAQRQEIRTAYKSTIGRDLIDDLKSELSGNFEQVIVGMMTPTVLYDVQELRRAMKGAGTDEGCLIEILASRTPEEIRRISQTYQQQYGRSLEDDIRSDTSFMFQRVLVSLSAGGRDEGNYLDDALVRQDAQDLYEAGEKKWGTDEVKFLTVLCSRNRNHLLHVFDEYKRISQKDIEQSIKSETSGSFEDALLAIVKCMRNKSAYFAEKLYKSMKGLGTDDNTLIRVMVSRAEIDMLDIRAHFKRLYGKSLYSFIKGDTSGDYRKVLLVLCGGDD
Description: as §1

[2] = tested on: post-ischemic human brain; experiment: Binding to normal and ischemic brain samples from stroke patients
Description: as §1

[3] = allograft transplant model, recipients with full natural antibody repertoire

Molecule: C=CC[C@@H]1/C=C(\C)C[C@H](C)C[C@H](OC)[C@H]2O[C@@](O)(C(=O)C(=O)N3CCCC[C@H]3C(=O)O[C@H](/C(C)=C/[C@@H]3CC[C@@H](O)[C@H](OC)C3)[C@H](C)[C@@H](O)CC1=O)[C@H](C)C[C@@H]2OC [Tacrolimus, reference compound]
- graft survival (allogeneic grafts; tacrolimus alone, 1 mg/kg/day (subtherapeutic)): does not prolong survival

B1: B4scFv-Crry (scFv)
chain: VKLQESGPELVKPGASVKISCKASGYTFTDYYMNWVKQSHGKSLEWIGDINPNNGGTSYNQKFKGKATLTVDKSSSTAYMELRSLTSEDSAVYYCARYDYAWYFDVWGQGTTVTVSSGGGGSGGGGSGGGGDVLMTQTPLSLPVSLGDQASISCRSSQSIVHSNGNTYLEWYLQKPGQSPKLLIYKVSNRFSGVPDRFSGSGSGTDFTLKISRVEAEDLGVYYCFQGSHVPYTFGGGTKLEIKRGGGGSGGGGSCPAPSQLPSAKPINLTDESMFPIGTYLLYECLPGYIKRQFSITCKQDSTWTSAEDKCIRKQCKTPSDPENGLVHVHTGIQFGSRINYTCNQGYRLIGSSSAVCVITDQSVDWDTEAPICEWIPCEIPPGIPNGDFFSSTREDFHYGMVVTYRCNTDARGKALFNLVGEPSLYCTSNDGEIGVWSGPPPQCIELNKCTPPPYVENAVMLSENRSLFSLRDIVEFRCHPGFIMKGASSVHCQSLNKWEPELPSCFKGVICRLPQEMSGFQKGLGMKKEYYYGENVTLECEDGYTLEGSSQSQCQSDGSWNPLLAKCVSRSIIEGRHHHHHH
modifications: 125I radiolabel in the graft perfusion experiment (position not given)
notes: also called B4-Crry; B4Crry
- fold higher binding in BD vs. living donor grafts [1]: 7 fold

B2: B4scFv-Crry: anti-annexin-IV single chain antibody (B4scFv) linked to Crry; B4Crry amino acid sequence SEQ ID NO: 62 (protein)
chain: MSVPTQVLGLLLLWLTDARCVKLQESGPELVKPGASVKISCKASGYTFTDYYMNWVKQSHGKSLEWIGDINPNNGGTSYNQKFKGKATLTVDKSSSTAYMELRSLTSEDSAVYYCARYDYAWYFDVWGQGTTVTVSSGGGGSGGGGSGGGGDVLMTQTPLSLPVSLGDQASISCRSSQSIVHSNGNTYLEWYLQKPGQSPKLLIYKVSNRFSGVPDRFSGSGSGTDFTLKISRVEAEDLGVYYCFQGSHVPYTFGGGTKLEIKRGGGGSGGGGSCPAPSQLPSAKPINLTDESMFPIGTYLLYECLPGYIKRQFSITCKQDSTWTSAEDKCIRKQCKTPSDPENGLVHVHTGIQFGSRINYTCNQGYRLIGSSSAVCVITDQSVDWDTEAPICEWIPCEIPPGIPNGDFFSSTREDFHYGMVVTYRCNTDARGKALFNLVGEPSLYCTSNDGEIGVWSGPPPQCIELNKCTPPPYVENAVMLSENRSLFSLRDIVEFRCHPGFIMKGASSVHCQSLNKWEPELPSCFKGVICRLPQEMSGFQKGLGMKKEYYYGENVTLECEDGYTLEGSSQSQCQSDGSWNPLLAKCVSRSIIEGRHHHHHH
modifications: B4Crry amino acid sequence
- Ischemia reperfusion injury (skin and muscle histopathological score) (VC isografts): protection from IRI
- cardiac graft inflammation and injury (transplanted heart; allograft transplant model): significantly reduced
- complement activation in graft (transplanted heart; [3]): blocked
- graft IgM binding (transplanted heart; [3]): blocked
- targeting to the transplanted heart (transplanted heart; cardiac Tx model): specifically targeted to the transplanted heart
- immunity to infection (transplanted heart; compared with complement deficiency): did not affect immunity to infection
- staining of biopsies obtained post-Tx (annexin IV; human liver biopsies post-Tx): stained biopsies obtained post-Tx
- staining of samples from normal biopsies (annexin IV; normal human liver biopsies): not samples from normal biopsies
- binding to post-ischemic human liver (annexin IV; post-ischemic human liver): directly bind
- binding to post-ischemic human brain [2]: directly bind
- graft survival (allogeneic grafts; B4-Crry at 0 and 24 hours post-transplant combined with tacrolimus 1 mg/kg/day, vs. tacrolimus alone): significantly prolongs graft survival
